Literature values in PMC2478715.

System: HMGB1 (purified from mammalian source) (rat (liver nuclei), human (HeLa) or monkey (CV1); preparation per gel not specified)
Assay: cited value; method not stated here
Conditions: 50 mM NaCl, 25 mM Tris-HCl pH 7.5, 1 mM DTT, 1 mM EDTA, 0.1% Triton X-100, 100 ug/mL BSA, 2% glycerol, 25 uL, 20 min at 37 C; 4% PAGE in 0.5x TBE at room …

Q: For “hcDNA (hemicatenated DNA loop, 120 bp fragment)”, which Kd is on record?
A: < 0.15 pM
